According to PMC3660329, “Molecular Identification of Carnosine N-Methyltransferase as Chicken Histamine N-Methyltransferase-Like Protein (HNMT-Like)” (PLoS ONE, 2013):

B1: chicken HNMT-like protein (recombinant carnosine N-methyltransferase) (Gallus gallus) (protein)
chain: MEPTPEMKRNRLPSMNFEAEILADPHDNSELYVIPSMRSLTAEEYVEAFQSFLDHSTEHQCMDEFNKEVMPHIMAGLGNGKSTINILGVGSGTGEQDLKMIQILQAAHPGVLINNEIIEPNPQHVAAYKELVNRAPDLQGVSFTWHQLTSSEYEQQVKEKNTHKKFDFIHMIQMLYRVEDIPNTIKFFHSCLNHQGKLLIIILSDSSGWASLWKKYRHCLPSTDSGHYITSDSITAVLRKLGIKYHVYEFPSGWDITECFIEGDPAGGHMMDFLTGTKNFLGTAPAALRSRLQEALCQPECSSRKDGRVIFCNNLSMIVAES
notes: full-length ORF from pectoral muscle cDNA, C-terminal His6 tag (pEF6/Myc-His A), expressed in COS-7, HisTrap purified to homogeneity, monomer about 38 kDa (36 kDa without tag)
B2: carnosine N-methyltransferase (native, chicken pectoral muscle) (Gallus gallus) (protein)
chain: B1 chain
notes: about 45 kDa by gel filtration

Experiments:
Test in all cases: radiochemical methyl transfer from (3H)SAM, nonlinear regression
Type in all cases: biochemical, Gallus gallus
[1] = substrate: C[S+](CC[C@H](N)C(=O)O)C[C@H]1O[C@@H](n2cnc3c(N)ncnc32)[C@H](O)[C@@H]1O; details: 20 mM carnosine, variable (1H+3H)SAM, 1 mM MgCl2, pH 7.5, 37 °C, labelled compound
Source text: (§1) radiochemical methyl transfer from (3H)SAM, nonlinear regression on chicken HNMT-like protein (recombinant carnosine N-methyltransferase)

[2] = substrate: NCCC(=O)N[C@@H](Cc1cnc[nH]1)C(=O)O; details: non-saturating 1 µM SAM, 1 mM MgCl2, pH 7.5, 37 °C
Source text: as §1

[3] = substrate: C[S+](CC[C@H](N)C(=O)O)C[C@H]1O[C@@H](n2cnc3c(N)ncnc32)[C@H](O)[C@@H]1O; details: 20 mM carnosine, variable (1H+3H)SAM, 1 mM MgCl2, pH 7.5, 37 °C, labelled compound; remark: listed apart in the source
Source text: (§2) radiochemical methyl transfer from (3H)SAM, nonlinear regression on carnosine N-methyltransferase (native, chicken pectoral muscle)

[4] = substrate: NCCC(=O)N[C@@H](Cc1cnc[nH]1)C(=O)O; details: non-saturating 1 µM SAM, 1 mM MgCl2, pH 7.5, 37 °C; remark: listed apart in the source
Source text: as §2

| Protein | Km [1] | Vmax [1] | kcat [1] | Km [2] | Vmax [2] | kcat [2] | Km [3] | Vmax [3] | kcat [3] | Km [4] | Vmax [4] | kcat [4] |
| --- | --- | --- | --- | --- | --- | --- | --- | --- | --- | --- | --- | --- |
| B1 | 14 ± 1 µM | 0.786 µmol/min/mg | 0.519 ± 0.013 s⁻¹ | 1628 ± 71 µM | 0.0519 µmol/min/mg | 0.034 ± 0.001 s⁻¹ | – | – | – | – | – | – |
| B2 | – | – | – | – | – | – | 11 ± 1 µM | 0.153 µmol/min/mg | 0.093 ± 0.002 s⁻¹ | 1646 ± 157 µM | 0.0138 µmol/min/mg | 0.008 s⁻¹ |
